Experimental findings from US20240018237A1 (SICHUAN KELUN BIOTECH BIOPHARMACEUTICAL, published 2024) are described below.

B1: 19F6-Hu35V3 (antibody, human IgG1, kappa, V domains shown)
VH: QVQLQESGPGLVKPSQTLSLTCTVSGYSITSDYAWNWIRQFPGKGLEWIGYISYSGSIRYNPSLKSRVTISRDTSKNQFSLKLSSVTAADTAVYYCARGEITYYFDYWGQGTLVTVSS
VL: ETTLTQSPAFMSATPGDKVTISCKASTSIDDDMNWYQQKPGKPPKLIISEGNTLRPGIPPRFSSSGYGTDFTFTINKIESEDAATYYCLQSNDLPLTFGQGTKLEIKR
notes: humanized, human IgG1 / kappa
B2: 19F6-Hu34 (antibody, human IgG1, kappa, V domains shown)
VH: B1 VH
VL: DIQMTQSPSSLSASVGDRVTITCQTSTDIDDDLNWYQQKPGKPPKLLISEGNTLETGVPSRFSGSGSGTDFTFTISSLQPEDIADYYCLQSNDLPLTFGAGTKLEIKR
notes: humanized, human IgG1 / kappa
B3: 19F6-Hu22 (antibody, human IgG1, kappa, V domains shown)
VH: B1 VH with Q16E, F41P, I49M, S66D, V68I
VL: DIQMTQSPSSLSASVGDRVTITCITTTDIDDDMNWYQQKPGKAPKLLISEGNTLQSGVPSRFSGSGYGTDFTLTISSLQPEDFATYYCLQSNDLPLTFGQGTKLEIKR
notes: humanized, human IgG1 / kappa
B4: 19F6-Hu35V6 (antibody, human IgG1, kappa, V domains shown)
VH: B1 VH
VL: B1 VL with S28D, D31N, K77N, E79K
notes: humanized, human IgG1 / kappa
B5: 19F6-Hu35V9 (antibody, human IgG1, kappa, V domains shown)
VH: B1 VH
VL: B1 VL with N76R, T85D
notes: humanized, human IgG1 / kappa
B6: 19F6-Hu35V8 (antibody, human IgG1, kappa, V domains shown)
VH: B1 VH
VL: B1 VL with S28D, D31N, K77N, E79Q
notes: humanized, human IgG1 / kappa
B7: 19F6-Hu35V4 (antibody, human IgG1, kappa, V domains shown)
VH: B1 VH
VL: B1 VL with D31N
notes: humanized, human IgG1 / kappa
B8: 19F6-Hu11 (antibody, human IgG1, kappa, V domains shown)
VH: B1 VH with Q16E, S25T, F41P, I49M, N61K, S66D, V68I
VL: B3 VL with Q55R, S56P
notes: humanized, human IgG1 / kappa
B9: 19F6-Hu35V10 (antibody, human IgG1, kappa, V domains shown)
VH: B1 VH
VL: B1 VL with S28D, D31S, N76R, T85D
notes: humanized, human IgG1 / kappa
B10: 19F6-Hu35V7 (antibody, human IgG1, kappa, V domains shown)
VH: B1 VH
VL: B1 VL with K77N, E79Q
notes: humanized, human IgG1 / kappa

Where a chain is given by its changes, count along the chain named.

The target in the first assay is T1, human ROR1 (full-length, on the cell surface) (human, UniProt Q01973 30-937).
T1 construct: whole, on cells; the tumour cell lines carry their own ROR1; also called Ba/F3-ROR1 cells; Jeko-1
T1 sequence (Q01973 30-937): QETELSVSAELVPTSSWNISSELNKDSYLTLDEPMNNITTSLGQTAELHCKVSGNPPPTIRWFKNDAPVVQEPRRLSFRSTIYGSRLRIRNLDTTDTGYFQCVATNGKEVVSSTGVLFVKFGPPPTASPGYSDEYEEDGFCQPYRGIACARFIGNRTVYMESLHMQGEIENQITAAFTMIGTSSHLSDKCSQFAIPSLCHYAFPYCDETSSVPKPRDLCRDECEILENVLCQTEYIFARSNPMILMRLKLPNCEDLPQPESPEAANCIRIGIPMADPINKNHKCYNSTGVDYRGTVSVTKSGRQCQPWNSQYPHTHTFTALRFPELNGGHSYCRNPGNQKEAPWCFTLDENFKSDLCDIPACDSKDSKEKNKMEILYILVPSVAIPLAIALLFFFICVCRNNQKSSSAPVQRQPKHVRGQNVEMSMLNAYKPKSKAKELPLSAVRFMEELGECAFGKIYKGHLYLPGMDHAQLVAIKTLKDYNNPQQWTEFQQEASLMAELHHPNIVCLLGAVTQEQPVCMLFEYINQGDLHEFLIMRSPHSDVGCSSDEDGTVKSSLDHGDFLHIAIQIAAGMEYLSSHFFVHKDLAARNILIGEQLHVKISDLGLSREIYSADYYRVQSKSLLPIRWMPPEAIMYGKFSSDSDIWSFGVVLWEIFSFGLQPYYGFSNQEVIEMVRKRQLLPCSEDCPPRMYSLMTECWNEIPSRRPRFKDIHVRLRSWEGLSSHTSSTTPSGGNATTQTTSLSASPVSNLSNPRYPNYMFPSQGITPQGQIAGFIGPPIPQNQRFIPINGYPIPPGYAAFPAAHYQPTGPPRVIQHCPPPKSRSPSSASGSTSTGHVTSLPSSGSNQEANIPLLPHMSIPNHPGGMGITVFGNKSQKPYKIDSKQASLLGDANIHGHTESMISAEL
The assay can be described thus: flow cytometry, A549 cells. The method, then: (§1) The affinities of the anti-human ROR1 humanized antibodies to Ba/F3-ROR1, Jeko-1, HT-29 and A549 cells were detected by flow cytometry. The specific experimental steps were as follows: the BaBF3-ROR1, Jeko-1, HT-29 and A549 cells were incubated with the purified humanized antibodies of different concentration gradients on ice for 30 minutes, and the anti-ROR1 antibody UC961 with human IgG1 and the anti-TNP antibody were used as positive and negative controls, respectively.
Background: A flow cytometer gives signals particle by particle.
As a reminder, the EC50 is the concentration needed to bring the measured effect to its halfway point. Read a high EC50 as a need for much substance. For B1, the midpoint of the response, the EC50, lay at 0.1 nM.
The same measure, in the same setting: the same measure for B2: 0.13 nM; for B3: 0.25 nM; for B4: 0.08 nM.
The same measure, in the same setting: in the case of B5 it was 0.14 nM; in that of B6, 0.09 nM; in that of B7, 0.15 nM.
Take B8: the EC50 is 0.17 nM.
The same measure, in the same setting: the same measure for B9: 0.12 nM; for B10: 0.1 nM.

For the next assay, the target named is T1, human ROR1 (full-length, on the cell …). Put plainly: flow cytometry, Ba/F3-ROR1 cells.
For B1, the half-maximal effective concentration (EC50) was determined as 0.18 nM.
Regarding B2, the EC50 is 0.53 nM.
Still for that read-out and setting: the same measure for B3: 0.3 nM; for B4: 0.17 nM; for B5: 0.21 nM.
Still for that read-out and setting: in the case of B6 it was 0.18 nM.
Still for that read-out and setting: the same measure for B7: 0.28 nM; for B8: 0.25 nM.
B9 had a concentration for a half-maximal effect (EC50) of 0.27 nM.
B10 gave an EC50 of 0.19 nM.

For a further assay the target is unchanged. The assay can be described thus: flow cytometry, Jeko-1 cells. How it is done:
as §1
In the case of B1, the concentration giving a half-maximal response (EC50) is 0.18 nM.
B2 yielded an EC50 of 0.18 nM.
In turn, B3 came in with an EC50 of 0.13 nM.
On the same count and under the same terms, in the case of B4 it was 0.2 nM; in that of B5, 0.28 nM; in that of B6, 0.18 nM.
Same read-out and setting: the same measure for B7: 0.2 nM.
On to B8, for which the response was half-maximal at 0.15 nM (EC50).
Still for that read-out and setting: in the case of B9 it was 0.35 nM.
The same measure, in the same setting: the same measure for B10: 0.22 nM.

The target is the same in a further assay. The assay can be described thus: flow cytometry, HT-29 cells. The method, then: as §1
B1 gave an EC50 of 0.17 nM.
The same measure, in the same setting: the same measure for B2: 0.19 nM; for B3: 0.16 nM.
Still for that read-out and setting: in the case of B4 it was 0.16 nM; in that of B5, 0.17 nM; in that of B6, 0.12 nM.
Same read-out and setting: the same measure for B7: 0.3 nM; for B8: 0.08 nM.
Take B9: a half-maximal response (EC50) required 0.17 nM.
Still for that read-out and setting: in the case of B10 it was 0.18 nM.
